The text below walks through data of patent publication US20180311369A1 (WRIGHT STATE UNIVERSITY, published 2018).

Assay [1] concerns the target T1, MAGI-1 PDZ3 domain (Rattus norvegicus (Rat), UniProt Q4L1J4 846-921, limits assumed). Briefly: ligand binding assay with purified PDZ domain.
Assay [2] concerns the target T2, MAGI-1 PDZ1 domain (Rattus norvegicus (Rat), UniProt Q4L1J4 475-542, limits assumed).
T2 construct: also called MAGI-PDZ-1
Briefly: ligand binding assay with purified MAGI-1 PDZ1.

Assay [3] addresses T1, MAGI-1 PDZ3 domain. Briefly: ligand binding assay with purified MAGI-1 PDZ3.
The target in assay [4] is T2, MAGI-1 PDZ1 domain. The experiment in a line: ligand binding assay with purified PDZ domain.

T1 sequence (Q4L1J4 846-921 limits assumed): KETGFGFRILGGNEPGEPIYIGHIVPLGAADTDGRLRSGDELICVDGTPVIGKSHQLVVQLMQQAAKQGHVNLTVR
T2 sequence (Q4L1J4 475-542 limits assumed): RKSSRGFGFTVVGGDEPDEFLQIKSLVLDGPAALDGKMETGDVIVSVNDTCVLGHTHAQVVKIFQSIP

For the molecule GRKKRRQRRRPPQGGKKKETLV (also called TAT-PDZ1 peptide) [TAT-NET1], the binding result in assay [1] is listed as “no binding”. Moreover, the Kd in assay [2] came out at 28 nM.
For GRKKRRQRRRPPQYKTDGITVV (also called TAT-PDZ3 peptide) [TAT-CAR^Ex8], the Kd in assay [2] stood at 23 nM; in assay [3], 4 nM.
Take GRKKRRQRRRPPQSRTRRETQL (also called TAT-E6) [TAT-HPV E6]: the binding result in assay [1] is listed as “no binding”. In assay [2], this molecule registered a Kd of 15 nM.
For GRKKRRQRRRPPQAQSQAGSLV (also called TAT-PDZ3 peptide) [TAT-ESAM], in assay [4], the binding result is listed as “no binding”. For the same molecule, the equilibrium dissociation constant (Kd) in assay [3] came to 17 nM.
